Assay results as given in patent publication US11130803B2, “Isoform-selective TGFβ1 inhibitors and use thereof” (Scholar Rock, Inc., priority 2018, dated 2021).
Like-named read-outs stand apart in the source and are kept apart here.

How the values were obtained:
Type in all cases: binding, human
[1] = test system: matrix-associated (LTBP1/LTBP3) and cell-associated (GARP/LRRC33) proTGFβ1 complexes; assay: Octet: average KD and fold bias, matrix- vs cell-associated complexes
Method in brief: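 Monoclonal antibodies were measured for binding affinity, expressed as KD, to cell-surface or cell-associated proTGFβ1 complexes (GARP and LRRC33). The KD values for the two complexes were averaged to give one value for cell-associated affinity. That average was then divided by the matrix-associated average to express fold bias between the complex types.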

[2] = test system: hLTBP1-/hLTBP3-proTGFβ1 vs hGARP-/hLRRC33-proTGFβ1 complexes; assay: Solution equilibrium titration: relative affinity (bias) LTBP complexes vs cell-associated complexes; settings: MSD-SET
Excerpt: Context-biased: As used herein, “context-biased antibodies” refer to a type of conformational antibodies that binds an antigen with differential affinities when the antigen is associated with (i.e., bound to or attached to) an interacting protein or a fragment thereof. Thus, a context-biased antibody that specifically binds an epitope within proTGFβ1 may bind LTBP1-proTGFβ1, LTBP3-proTGFβ1, GARP-proTGFβ1 and LRRC33-proTGFβ1 with different affinities. […] Relative affinities of [matrix-associated complexes]: [cell-associated complexes] may be obtained by taking average KD values of the former, taking average KD values of the latter, and calculating the ratio of the two, as exemplified herein.
In a yet further aspect, the present disclosure provides context-biased TGFβ1 inhibitors. The context-biased antibodies include LTBP-biased antibodies with higher affinities for ECM-associated LLCs than for cell-associated LLCs wherein the affinities are measured at equilibrium.

[3] = test system: matrix-associated (LTBP1/LTBP3) and cell-associated (GARP/LRRC33) proTGFβ1 complexes; assay: Octet: average KD and fold bias, matrix- vs cell-associated complexes; settings: average KD of (B) and (C), read-out: (D) ECM AVRG
[4] = ratio of average KD cell-associated / matrix-associated

B1: Ab19: monoclonal antibody; VH SEQ ID NO: 250, VL SEQ ID NO: 241 (antibody, V domains shown)
VH: QVQLVESGGGVVQPGRSLRLSCAASGFTFSSFAMTWVRQAPGKGLEWVSAISGSGAATYFADSVKGRFTISRDNSKNTLYLQMNSLRAEDTAVYYCARVSSGHWDFDEWGQGTLVTVSS
VL: DIQLTQSPSSLSASVGDRVTITCRASQSISSYLNWYQQKPGKAPKLLIYAASNLQSGVPSRFSGSGSGTDFTLTISSLQPEDFATYYCQQTYTVPLTFGGGTKVEIK
Q: Which results are given for B1?
A: Kd ([1]; average KD of (E) and (F), cell-associated complexes, read-out: (G) Cell AVRG): 5.95 nM; (H) G/D (fold bias) [1, 4]: 34.47 fold; Kd ([2]; average KD of (B) and (C), read-out: (D) ECM AVRG): 2.83 nM; Kd ([2]; average KD of (E) and (F), read-out: (G) Cell AVRG): 4.75 nM; (H) G/D (fold bias) [2, 4]: 1.68 fold; Kd [3]: 0.172 nM
